Kd data for one substance are collected here from article PMC4662715.

This assay has as its target CCR1-rHDL (human C-C chemokine receptor 1 with C-terminal 1D4 tag, in reconstituted high density lipoprotein) (human) (UniProt P32246). Kind of assay: SPR; CCR1-rHDL captured via immobilised 1D4 antibody on a CM5 chip (~3000 RU); MIP-1α variant flowed at 0.13-5.0 μM; 25 °C; 20 mM HEPES, pH 7.2, 100 mM NaCl; empty-rHDL on the control flow cell; steady-state fit.

The Kd is a measure of binding affinity in units of concentration. The low end stands for a tighter complex, the high end for a looser complex.

Chain of UniProt P32246 (P32246 whole entry): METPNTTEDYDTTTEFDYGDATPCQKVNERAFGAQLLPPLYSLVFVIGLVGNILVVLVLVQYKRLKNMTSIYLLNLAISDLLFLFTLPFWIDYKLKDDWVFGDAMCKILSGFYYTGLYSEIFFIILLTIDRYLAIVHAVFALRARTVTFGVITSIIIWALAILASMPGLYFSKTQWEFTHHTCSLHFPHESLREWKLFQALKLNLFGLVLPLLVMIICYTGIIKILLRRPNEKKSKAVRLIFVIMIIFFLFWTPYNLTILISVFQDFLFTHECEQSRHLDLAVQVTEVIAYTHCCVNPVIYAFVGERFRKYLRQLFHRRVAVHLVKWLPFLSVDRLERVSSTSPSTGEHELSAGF

MIP-1α variant (P8A/F13Y/E67Q) (ligand): the Kd turned out to be 2000 nM.
